Results reported in publication PMC10141581.
One block for each substance: values may come before it.

Assays:
[1] = target: 14-3-3ζ (UniProt P63104); test: SEC-MALS of homodimer, 50 µM; conditions: reference: 14-3-3ζ wild type; sites S58
[2] = target: 14-3-3ζ (UniProt P63104); test: His-tag co-purification after E. coli co-expression; conditions: reference: HSPB6 wild type (Ser16); sites S16
[3] = target: FLAG-CRBN (human) (UniProt Q96SW2); test: co-IP; 20 μM purified Myc-14-3-3ζ added to lysate of HEK293T cells expressing FLAG-CRBN (Calyculin A, no phosphatase), 1 h; ANTI-FLAG M2 affinity gel; 50 mM Tris pH 7.5, 150 mM NaCl; Western blot with α-FLAG and α-myc
Chain of FLAG-CRBN (human) (Q96SW2 whole entry): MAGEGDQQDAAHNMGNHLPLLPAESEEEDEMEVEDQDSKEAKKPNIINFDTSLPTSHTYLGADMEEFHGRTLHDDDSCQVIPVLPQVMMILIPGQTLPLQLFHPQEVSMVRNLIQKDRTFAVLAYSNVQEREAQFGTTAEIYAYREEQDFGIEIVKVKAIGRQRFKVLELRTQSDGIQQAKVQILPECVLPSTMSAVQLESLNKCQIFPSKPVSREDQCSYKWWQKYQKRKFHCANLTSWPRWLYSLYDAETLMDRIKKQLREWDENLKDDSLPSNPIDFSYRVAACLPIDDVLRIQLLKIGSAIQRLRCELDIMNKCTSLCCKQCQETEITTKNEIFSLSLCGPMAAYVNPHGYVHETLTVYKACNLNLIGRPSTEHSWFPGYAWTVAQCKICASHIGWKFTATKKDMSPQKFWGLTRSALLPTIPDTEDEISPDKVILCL

[4] = target: HSPB6 (Homo sapiens) (UniProt O14558); conditions: cited from earlier work
Chain of HSPB6 (Homo sapiens) (O14558 whole entry): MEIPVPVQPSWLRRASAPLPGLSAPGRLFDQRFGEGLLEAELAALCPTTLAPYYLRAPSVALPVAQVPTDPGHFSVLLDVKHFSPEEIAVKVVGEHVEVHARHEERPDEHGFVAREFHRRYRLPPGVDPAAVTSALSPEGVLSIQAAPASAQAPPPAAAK

[5] = target: 14-3-3ζ WT (human) (UniProt P63104); test: SEC-MALS; 14-3-3ζ variants alone, injected at 50 μM initial concentration; Superdex 200 10/300 GL; 50 mM Tris pH 7.4, 150 mM NaCl, 0.5 mM TCEP; room temperature; dimer to monomers
[6] = target: HSPB6-nhpSer16 (UniProt O14558); test: AUC; sedimentation equilibrium; 14.3, 7.2 and 3.6 μM; 8,000, 10,000 and 15,000 rpm; 5 °C; 50 mM Tris pH 7.4, 150 mM NaCl, 1 mM TCEP; global fit to A + B ↔ AB with fixed masses of a HSPB6 dimer and a 14-3-3ζ dimer
[7] = target: HSPB6-pSer16 (UniProt O14558); test: as above
Chain of HSPB6-pSer16 (O14558 whole entry): as above

[8] = target: HSPB6-nhpSer16 (UniProt O14558); test: SEC-MALS; co-purified 14-3-3ζ/HSPB6 complexes, or purified HSPB6 mixed with 14-3-3ζ; Superdex 200 10/300 GL; 50 mM Tris pH 7.4, 150 mM NaCl, 0.5 mM TCEP; room temperature; samples at 50 μM
[9] = target: HSPB6-pSer16 (UniProt O14558); test: as above

Chain of 14-3-3ζ WT (P63104 1-230): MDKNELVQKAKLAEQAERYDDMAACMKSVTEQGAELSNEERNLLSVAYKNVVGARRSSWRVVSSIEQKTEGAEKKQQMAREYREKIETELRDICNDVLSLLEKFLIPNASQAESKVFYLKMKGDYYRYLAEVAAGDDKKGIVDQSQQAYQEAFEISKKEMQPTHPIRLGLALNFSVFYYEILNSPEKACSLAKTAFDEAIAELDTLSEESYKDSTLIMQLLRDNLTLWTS
Chain of 14-3-3ζ (from UniProt P63104) 14-3-3ζ pSer58 (genetic code expansion) (P63104 whole entry, stated change not applied): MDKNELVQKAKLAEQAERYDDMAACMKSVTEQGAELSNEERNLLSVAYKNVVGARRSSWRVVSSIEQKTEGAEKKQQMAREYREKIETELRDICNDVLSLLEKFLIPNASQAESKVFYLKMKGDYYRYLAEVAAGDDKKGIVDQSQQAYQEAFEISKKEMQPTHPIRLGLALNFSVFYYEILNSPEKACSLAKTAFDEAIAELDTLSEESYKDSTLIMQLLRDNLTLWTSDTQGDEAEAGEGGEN
Chain of 14-3-3ζ (from UniProt P63104) (P63104 whole entry): as the sequence (P63104 whole entry, stated change not applied) above
Chain of 14-3-3ζ (UniProt P63104) (P63104 whole entry): as the sequence (P63104 whole entry, stated change not applied) above
Chain of myc-14-3-3ζ nhpSer58 (P63104 whole entry): as the sequence (P63104 whole entry, stated change not applied) above

Substance: 14-3-3ζ (from UniProt P63104) 14-3-3ζ pSer58 (genetic code expansion)
binding against the reference [1]: lost

Substance: myc-14-3-3ζ nhpSer58 (from UniProt P63104 1-245) (natural protein)
fold co-immunoprecipitated relative to myc-14-3-3ζ WT or pSer58 [3]: 10 fold

Substance: 14-3-3ζ (from UniProt P63104)
Kd [4]: 560 nM

Further lines, results first:

binding against the reference [2]: gained
Substance: HSPB6 (small heat shock protein B6) (from UniProt O14558) HSPB6 pSer16 (genetic code expansion)

stoichiometry N [5]: 2
Kd [6]: 120 nM
Kd [7]: 92 nM
stoichiometry N (14-3-3ζ chains per HSPB6 chain (2:2)) [8]: 1
stoichiometry N (14-3-3ζ chains per HSPB6 chain (2:2)) [9]: 1
Substance: 14-3-3ζ WT (from UniProt P63104 1-230) (natural protein)
